The text below walks through data of US20030235860A1, “Interactions between AR, ER, TR2, and TR4” (priority 1999, published 2003).

Data set [1] relates to MCF7-TR2 cells. The experiment in a line: Cell cycle profile by flow cytometry, MCF7-TR2 cells. The format is cell-based. The note with it: 3 days, E2, or E2 with doxycycline-induced TR2. Here is the method: (A) Growth assays were performed by MTT method as instructed by manufacturer (Sigma). 5×10^3 MCF7-pBIG and MCF7-TR2 cells were seeded in 24-well plates and incubated in RPMI with 10% CD-FCS for 48 h. […] After 3- and 5-day treatment, cells were harvested for MTT assay. Data represents the relative folds of MTT O.D.570 values at day 5 divided by that at day 3. […] Cells were then trypsinized and fixed overnight in 70% Ethanol. After cells were incubated with 1 mg/ml RNase A (Sigma) and propidium iodide (Roche Molecular Biochemicals), the DNA contents of cells were measured by a flow cytometry. (C) Percentage of growth suppression by TR2. MCF7-TR2 cells were seeded at 5×10^3 cells per well in 24-well plates. […] The treatments were changed every two days. The indices of cell growth were determined by MTT assay. The MTT values from cells without doxycycline were set as 100% in each kind of treatment. Values are represented by the percentage of growth suppression from cells with doxycycline to that without doxycycline.

Data set [2] deals with cyclin D1. The experiment in a line: Western blot of cyclin D1 in MCF-7-TR4 cells. The format is cell-based. The note with it: 10 nM E2, Dox. Here is the method: MCF-7-TR4 or MCF-7-pBIG cells were cultured in DMEM containing 10% charcoal dextran-treated FBS for 3 days and then 1×10^6 cells were seeded on 100-mm dishes. […] The lysate protein amount was quantitated by Bradford assay (Bio-Rad, Hercules, Calif.) with bovine serum albumin as a reference standard. One hundred μg protein was loaded and after electrophoresis on 10% SDS-PAGE was transferred onto Immobulin (Milipore, Bedford, Mass.). The membrane was blotted with anti-cyclin D1 rabbit polyclonal Ab (H-295) (Santa Cruz). Alkaline phosphatase conjugated secondary Ab was used.
(A western blot detects proteins with antibodies after separation by electrophoresis.)

Data set [3] has as its system PR. Briefly: Endogenous PR expression in T47D cells (Northern / Western). The format is cell-based, human. Particulars: T47D cells; 10 nM E2, 24 h. Here is the method: The method was used as previously described, Lee & Chang. (1996) J. Biol. Chem. 271. 10405-10412, with some modifications. Briefly. 5 μg of pCMV-TR2 was transiently transfected into T47D cells and lysed in RIPA buffer (10 mM sodium phosphate, pH 7.0. 150 mM NaCL, 2 mM EDT A. 1% (w/v) Nonidet P-40, 0.1% (w/v) SDS. 1% (w/v) sodium deoxycholate) with freshly adding proteinase inhibitors. The soluble protein was quantified using the Bio-Rad Protein Assay reagent (Bio-Rad Laboratories) and 50 μg soluble proteins were loaded onto SDS/10% PAGE and then transferred to Immobion-P transfer membrane (Millipore). After the blocking reaction overnight, the membrane was incubated with […] anti-PR polyclonal antibody (H-190. Santa Cruz) in PBS(−) containing 0.1% Skim milk for 2 h at room temperature. The membrane was washed and then incubated in 15 μCi 125I] of protein-A (DuPont NEN)/30 ml of PBS(−) containing 0.1% Skim milk for 1 h at room temperature. The western blots were autoradiographed and quantitated by using Phosphorlmager.
RNA isolation and Northern blot analysis were performed as previously described. Young, et al., J. Biol. Chem. 273,20877-20885 (1998).
Next it was determined if TR2 could repress the ER endogenous target gene expression. PR was chosen because it is well studied as an E2-ER target gene in T47D cells. Misrahi et al., Biochem. Biophys. Res. Commun. 143, 740-748 (1987). […] Cells were then used for RNA isolation (Northern blot analysis) and lysate protein extraction (Western blot analysis). For RNA analysis, total RNAs were isolated, and Northern blots were performed using [32P] labeled PR cDNA probes. The membrane was autoradiographed. For Protein Western blot analysis, cells lysates were prepared and PR proteins were visualized by radioimmunoblot. The membrane was autoradiographed to Phosphorimager and was quantitated by ImageQuant software.

Data set [4] relates to MCF-7-TR4 cells. The experiment in a line: MCF-7 cells growth assay (cell counting). The format is cell-based. The note with it: MCF-7-TR4 cells (E2 also in MCF-7-pBIG); 10 nM E2; Dox. On the procedure:
MCF-7-TR4 and MCF-7-pBIG cells, which were deprived of estrogen by culturing in phenol-free DMEM medium supplement with 10% charcol-stripped FBS for 4 days, were plated at 10^4 cells/well into 24-well plate. […] Cells were trypsinized at the specified time points and counted with a hemocytometer to determine cell density per sample.

The target of data set [5] is T1, TR4 LBD (row label of Table 4) (human, UniProt P49116 205-596).
T1 construct: not shown: Fusion partner: GST in the pull-down with ER, GAL4-DBD in the hybrid assays with AR
T1 sequence: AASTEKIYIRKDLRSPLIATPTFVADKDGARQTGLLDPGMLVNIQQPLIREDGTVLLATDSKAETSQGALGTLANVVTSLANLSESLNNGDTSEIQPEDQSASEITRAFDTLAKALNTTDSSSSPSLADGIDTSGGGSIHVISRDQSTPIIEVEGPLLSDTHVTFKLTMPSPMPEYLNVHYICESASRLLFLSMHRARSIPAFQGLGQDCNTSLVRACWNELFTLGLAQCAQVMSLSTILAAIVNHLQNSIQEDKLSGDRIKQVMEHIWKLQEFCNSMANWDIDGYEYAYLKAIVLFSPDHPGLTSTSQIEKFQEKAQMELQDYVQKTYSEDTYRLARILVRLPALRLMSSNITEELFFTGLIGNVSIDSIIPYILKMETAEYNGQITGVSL
Briefly: Table 4, summary of interactions tested; assay not given.

Data set [6] addresses T2, TR4 orphan receptor (TR4), full-length (human, UniProt P49116 1-596).
T2 construct: Full-length TR4; 35S-labeled when in vitro translated, expressed from plasmids in the cell assays; also called pCMX-TR4; pCMV-TR4
T2 sequence: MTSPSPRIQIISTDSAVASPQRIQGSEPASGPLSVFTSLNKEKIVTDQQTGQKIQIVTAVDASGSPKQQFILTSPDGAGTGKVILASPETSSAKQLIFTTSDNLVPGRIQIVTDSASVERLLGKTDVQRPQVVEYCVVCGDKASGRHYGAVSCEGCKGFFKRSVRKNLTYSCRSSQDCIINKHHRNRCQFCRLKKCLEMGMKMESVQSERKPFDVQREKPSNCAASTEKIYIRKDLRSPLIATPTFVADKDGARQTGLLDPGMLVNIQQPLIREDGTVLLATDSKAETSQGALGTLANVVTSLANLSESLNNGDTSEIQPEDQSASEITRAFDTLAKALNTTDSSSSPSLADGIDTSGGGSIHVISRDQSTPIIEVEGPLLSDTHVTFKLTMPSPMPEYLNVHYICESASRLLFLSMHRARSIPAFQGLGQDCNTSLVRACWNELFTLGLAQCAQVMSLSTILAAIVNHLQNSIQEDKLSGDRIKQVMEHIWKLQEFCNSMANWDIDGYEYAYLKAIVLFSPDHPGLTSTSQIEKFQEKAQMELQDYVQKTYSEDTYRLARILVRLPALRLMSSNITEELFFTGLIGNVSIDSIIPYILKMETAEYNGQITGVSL
The description is as above.

Data set [7] concerns the target T3, estrogen receptor (ER), full-length (human, UniProt P03372 1-595).
T3 construct: 35S-labeled when in vitro translated for the pull-downs; endogenous in MCF7 cells for the co-immunoprecipitation; also called ERα; pSG5-ER
T3 sequence: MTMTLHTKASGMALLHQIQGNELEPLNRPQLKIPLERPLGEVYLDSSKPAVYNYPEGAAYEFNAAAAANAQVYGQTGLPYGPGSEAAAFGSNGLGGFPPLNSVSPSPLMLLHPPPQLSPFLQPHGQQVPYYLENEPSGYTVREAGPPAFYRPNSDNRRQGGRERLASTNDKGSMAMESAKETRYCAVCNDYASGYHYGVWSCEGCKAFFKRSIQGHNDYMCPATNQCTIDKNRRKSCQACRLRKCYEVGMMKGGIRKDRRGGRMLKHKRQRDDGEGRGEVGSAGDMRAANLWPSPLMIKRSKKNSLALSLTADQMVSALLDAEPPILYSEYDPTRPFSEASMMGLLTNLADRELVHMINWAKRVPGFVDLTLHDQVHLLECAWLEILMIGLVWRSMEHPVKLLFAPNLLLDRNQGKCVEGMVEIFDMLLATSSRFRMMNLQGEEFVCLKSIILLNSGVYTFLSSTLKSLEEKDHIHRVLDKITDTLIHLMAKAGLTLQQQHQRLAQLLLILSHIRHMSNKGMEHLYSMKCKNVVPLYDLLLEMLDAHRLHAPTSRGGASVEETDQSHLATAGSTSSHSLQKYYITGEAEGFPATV
Briefly: GST pull-down, GST-TR2 fragment on beads, [35S]-ER.

Data set [8] concerns the target T4, Estrogen receptor alpha (ER) (Homo sapiens, UniProt P03372 SEQ:1-595).
T4 chain: T3 sequence
Briefly: EMSA; with or without E2; supershifted by C-314; competed by 100-fold cold ERE; decreased by added TR2. Particulars: chain copies: 2; label: 32P. In general terms: In EMSA bound probe runs differently from free probe, usually more slowly.

For data set [9], the target named is T5, TR2 orphan receptor (full length, 603 aa) (UniProt P13056 SEQ:1-603).
T5 chain: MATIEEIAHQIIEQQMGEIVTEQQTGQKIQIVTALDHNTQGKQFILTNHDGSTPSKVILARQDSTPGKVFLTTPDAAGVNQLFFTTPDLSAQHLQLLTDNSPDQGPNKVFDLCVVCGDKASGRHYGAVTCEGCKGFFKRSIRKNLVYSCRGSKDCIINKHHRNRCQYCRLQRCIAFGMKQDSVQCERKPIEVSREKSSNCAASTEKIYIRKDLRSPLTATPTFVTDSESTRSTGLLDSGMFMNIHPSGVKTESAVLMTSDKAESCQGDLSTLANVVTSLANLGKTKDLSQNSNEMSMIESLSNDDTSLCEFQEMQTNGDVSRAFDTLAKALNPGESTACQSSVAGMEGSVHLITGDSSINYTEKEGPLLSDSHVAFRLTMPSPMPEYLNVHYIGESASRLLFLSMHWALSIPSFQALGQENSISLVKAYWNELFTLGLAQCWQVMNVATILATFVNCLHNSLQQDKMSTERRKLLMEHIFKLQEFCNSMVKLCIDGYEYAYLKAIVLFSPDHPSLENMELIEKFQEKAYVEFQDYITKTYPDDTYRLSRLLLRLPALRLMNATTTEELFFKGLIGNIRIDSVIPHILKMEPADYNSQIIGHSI
Briefly: EMSA; no TR2-ERE band. Particulars: chain copies: 2; label: 32P.

The target in data set [10] is T6, GST-TR4 fusion protein (human, UniProt P49116 1-596).
T6 construct: also called pGEX-3X-TR4
T6 sequence: T2 sequence
The experiment in a line: GST pull-down, GST-TR4 on beads, 35S-labeled RXRα.

As to `C[C@]12CC[C@@H]3c4ccc(O)cc4CC[C@H]3[C@@H]1CC[C@@H]2O` [E2, 17β-estradiol, reference compound], in data set [1], the “Cells in G1” value was 37.4% and the “Cells in S” value came to 23.6%. The “Cyclin D1 expression” value in data set [2] is on record as “induced cyclin D1 expression”. Moreover, the “Induction of PR mRNA expression” value in [3] is “about 3 fold”. Further, the “Cell growth (cell number)” value in data set [4] is “stimulated cell growth”.

B1: ER LBD 282-595 (column label of Table 4) (receptor, not shown: large carriers)
chain: SAGDMRAANLWPSPLMIKRSKKNSLALSLTADQMVSALLDAEPPILYSEYDPTRPFSEASMMGLLTNLADRELVHMINWAKRVPGFVDLTLHDQVHLLECAWLEILMIGLVWRSMEHPVKLLFAPNLLLDRNQGKCVEGMVEIFDMLLATSSRFRMMNLQGEEFVCLKSIILLNSGVYTFLSSTLKSLEEKDHIHRVLDKITDTLIHLMAKAGLTLQQQHQRLAQLLLILSHIRHMSNKGMEHLYSMKCKNVVPLYDLLLEMLDAHRLHAPTSRGGASVEETDQSHLATAGSTSSHSLQKYYITGEAEGFPATV
For B1, the binding result in data set [5] and in [6] was “binds” in each case.

B2: GST-TR2-#1 (N-terminus, aa 1-112 of TR2) (other)
chain: MATIEEIAHQIIEQQMGEIVTEQQTGQKIQIVTALDHNTQGKQFILTNHDGSTPSKVILARQDSTPGKVFLTTPDAAGVNQLFFTTPDLSAQHLQLLTDNSPDQGPNKVFDL
notes: also called pGEX-KG-TR2-#1; not shown: GST carrier of pGEX-KG and its linker
Consider B2, for which the binding result in [7] is reported as “no binding”.

B3: complement C3 ERE (dsDNA)
DNA 1: AGGTGGCCCTGACCC
DNA 2: GGGTCAGGGCCACCT
On to B3, for which the binding result in data set [8] is listed as “binds”; in data set [9] it was “no binding”.

B4: retinoid X receptor alpha (RXRα) (receptor, UniProt P19793 1-462, looked up)
chain: MDTKHFLPLDFSTQVNSSLTSPTGRGSMAAPSLHPSLGPGIGSPGQLHSPISTLSSPINGMGPPFSVISSPMGPHSMSVPTTPTLGFSTGSPQLSSPMNPVSSSEDIKPPLGLNGVLKVPAHPSGNMASFTKHICAICGDRSSGKHYGVYSCEGCKGFFKRTVRKDLTYTCRDNKDCLIDKRQRNRCQYCRYQKCLAMGMKREAVQEERQRGKDRNENEVESTSSANEDMPVERILEAELAVEPKTETYVEANMGLNPSSPNDPVTNICQAADKQLFTLVEWAKRIPHFSELPLDDQVILLRAGWNELLIASFSHRSIAVKDGILLATGLHVHRNSAHSAGVGAIFDRVLTELVSKMRDMQMDKTELGCLRAIVLFNPDSKGLSNPAEVEALREKVYASLEAYCKHKYPEQPGRFAKLLLRLPALRSIGLKCLEHLFFFKLIGDTPIDTFLMEMLEAPHQMT
notes: 35S-methionine-labeled, in vitro translated; also called RXRa; RXRA
Take B4: the binding result in data set [10] is on record as “no binding”.
